Test results: patent US9290794B2, “Mutant protease biosensors with enhanced detection characteristics” (PROMEGA CORPORATION, priority 2010, dated 2016)
Where a chain is given by its changes, count along the chain named.

Legend:
caspase-3 [1] = assay: CBS variants transiently transfected in HEK293 cells, kinetic luminescence response to TRAIL treatment; assay type: cell-based; settings: for RESPONSE, IMPROVEMENT OVER TL-CP358-DEVD:DD / INDUCED, IMPROVEMENT OVER TL-CP358-DEVD:DD / BASAL, IMPROVEMENT OVER TL-CP358-DEVD:DD: Table 2 combination variants; for RESPONSE, IMPROVEMENT OVER TL-CP358-DEVD:DD: ratio of INDUCED to BASAL; for INDUCED, IMPROVEMENT OVER TL-CP358-DEVD:DD: roughly 10 hrs after TRAIL, HEK293; for BASAL, IMPROVEMENT OVER TL-CP358-DEVD:DD: time (0), HEK293 as in Example I; for greater RESPONSE compared with TL-CP358-DEVD:DD: after 2 hrs TRAIL treatment, live cells (FIGS. 2, 3)
Excerpt: The Caspase-3 BioSensor (CBS) is a thermostable Photuris pennsylvanica luciferase (TL), circularly-permuted (CP) at amino acid 358, with a caspase-3 recognition site, i.e., one containing the caspase-3 recognition site comprising amino acids DEVD, at the junction between the TL fragments. The specific CBS that was used as the starting template is termed TL-CP358-DEVD:DD. The amino acid sequence of this CBS can be represented as: M/TL residues 358-544/SDEVDGSL/TL residues 4-354/V (SEQ ID NO:6). The amino acid positions in the CP TL correlate to those of the non-CP TL sequence (provided in the attached appendix). Upon treatment with caspase-3, CBS is cleaved at the recognition site allowing the two TL fragments to form a more favorable, higher activity, conformation.
The utility of CBS is the differential activity before and after cleavage by caspase-3. The basal activity of CBS is defined as the activity at assay time (O), before caspase-3 has had time to cleave at the recognition site. The induced activity is defined as the activity at some later time (t) after CBS has been cleaved by caspase-3. The response or fold increase in activity, is the ratio of induced to basal activity. Substitutions in TL-CP358-DEVD:DD were generated to develop CBS variants with enhanced responsivity to induction using the error-prone, mutagenic PCR-based system GeneMorph II (Stratagene; Daugherty, PNAS USA 97(5):2029 (2000)), according to manufacturer's instructions.
The resulting library was expressed in E. coli and screened for luciferase activity with and without pre-treatment with recombinant caspase-3 (data not shown). CBS variants having the best signal and response characteristics were then evaluated in HEK293 cells by kinetic assay measuring the response to TNF-α-related apoptosis inducing ligand (TRAIL) treatment (Wiley, S. R. et al., Immunity 3:673 (1995); Niles, A. L. et al., Meth. Mol. Biol. 414:137 (2008)). TRAIL induces apoptosis via activation of the death receptor to form active caspase-8, which in turn activates procaspase 3 to produce caspase-3. The appearance of active caspase-3 should be accompanied by an increase in luminescence as the CBS variants are cleaved and activated. Briefly, HEK293 cells, plated at 15,000 cells/well in a 96-well plate, were transiently transfected using TransIT-LTI (Mires Bio) with plasmid DNAs encoding various CBS variants with amino acid substitutions in TL-CP358-DEVD:DD. The same plasmids also carried a gene for constitutive expression of Renilla luciferase to act as a transfection control. Cells were pretreated with 2 mM luciferin for 2 hrs at 37° C. Cells were treated with 1 μg/mL TRAIL and assayed for 10 hrs at 37° C. Luminescence was monitored continuously over time (Luminometer: Varioskan Flash (Thermo) 1 sec integration time). Cells in replicate wells were lysed, at the time of TRAIL addition, i.e., time (0) and Renilla luciferase activity was measured. All biosensor data was then normalized for transfection efficiency using Renilla luciferase luminescence (Dual-GloAssay System; Promega Corporation).
Table 1 lists the variants of TL-CP358-DEVD:DD, identified by clone name, showing improved response to TRAIL treatment. Improvements listed in Table 1 are normalized to the parental TL-CP358-DEVD:DD CBS. “BASAL” represents the normalized biosensor luminescence at TRAIL addition, i.e., time (0), “INDUCED” represents the normalized biosensor luminescence at roughly 10 hrs after TRAIL addition, and “RESPONSE” represents the fold-induction, i.e., the ratio of INDUCED to BASAL activity.
Additional CBS variants were generated using the oligo-based site-directed mutagenesis kit Quik Change (Stratagene; Kunkel, PNAS USA 82(2):488 (1985)), according to the manufacturer's instructions. […]

caspase-3 [2] = assay: CBS expressed in E. coli, HisLink purification fractions, caspase-3 cleavage reaction; assay type: biochemical
Method: The CBS variant 1A5 was cloned into a bacterial expression vector (pFNA:HQ(5×):CBS:HT(7); SEQ ID NOs:73 and 74) containing HaloTag® (C-terminal to the CBS) and a 5×HQ tag (N-terminal to CBS). The fusion protein was expressed in E. coli as follows: E. coli (KRX) was transformed with the vector. A starter culture (50 mL, LB Broth) was inoculated from a single colony and grown for 17-22 hrs at 37° C. with shaking (275 rpm). The starter culture was diluted (1:50) into induction media (500 mL, LB Broth with 0.05% glucose and 0.02% rhamnose) and growth was continued for another 17-22 hrs at 25° C. with shaking (275 rpm). The culture was divided into two 250 mL aliquots, and cells were collected by centrifugation (5,000×g for 20 min at 4° C.). One cell pellet was re-suspended in Lysis Buffer (25 mL, 50 mM HEPES (pH 7.5), 0.2× FastBreak, 2 mM DTT, 0.05% CHAPS, 50 mM Arginine, 50 mM Glutamic acid, 0.2 mg/mL Lysozyme, 10 U/mL RQ1 DNase, and Protease Inhibitors (Beckton/Dickenson Cat. No. 544779)) and incubated on ice for 30 min. After incubation, the sample was sonicated (Misonix Sonicator-3000, 4 mM total, 5 sec on, 5 sec rest, Power Setting 5). The crude lysate was clarified by centrifugation (20,000×g for 20 min at 4° C.), and the supernatant (cleared lysate) was used as the CBS source. For the caspase-3 cleavage reaction, 20 μl of the cleared lysate was mixed with 20 μL E. coli lysate expressing caspase-3 (Example XII) and incubated at room temperature for 30 min. 60 μL HEPES pH 7.5 was added, followed by the addition of 100 μL Bright-Glo Assay Reagent. Luminescence was detected as previously described above (FIG. 20).
Briefly, 25 mL of cleared lysate was made 0.5 M in NaCl (final concentration) and applied to 2 mL of settled HisLink resin that had been equilibrated with Binding Buffer (100 mM HEPES (pH7.5), 10 mM Imidazole, 500 mM NaCl). The resin was washed with 12 mL of Binding Buffer followed by washing with Elution Buffer (100 mM HEPES (pH 7.5), 1000 mM Imidazole). 1.75 mL fractions were collected.
For SDS-PAGE gel analysis, samples were labeled with CA-TAM and analyzed as described previously (FIG. 21A). For caspase-3 cleavage reaction, 20 μl of each sample was mixed with 20 μL E. coli lysate expressing Caspase-3 (Example XII) and incubated at room temperature for 30 min. 60 μL HEPES pH 7.5 was added, followed by the addition of 100 μL Bright-Glo Assay Reagent. Luminescence was detected as previously described above (Table 10 and FIG. 21B).

caspase-3 [3] = assay: Purified HQ:CBS:HT from E. coli immobilized on solid support, activation by Caspase-3; assay type: biochemical
[4] = HisLink purification sample HSS
[5] = HisLink purification sample NSM
[6] = HisLink purification sample WASH

B1: FC7: 49: CBS variant, 193SP 503SG 507TI (SEQ ID NOs:13 and 14) (protein)
chain: MPGSTGKIVPLHAVKVVDPTTGKILGPNEPGELYFKGPMIMKGYYNNEEATKAIIDNDGWLRSGDIAYYDNDGHFYIVDRLKSLIKYKGYQVAPAEIEGILLQHPYIVDAGVTGIPDEAAGELPAAGVVVQTGKYLNEQIVQDYVAGQVSIAKWLRGGVKFLDEIPKGSTGKIDRKVLRQMLEKHTNGSDEVDGSLKNILYGPEPFYPLEDGTAGEQMFDALSRYAAIPGCIALTNAHTKENVLYEEFLKLSCRLAESFKKYGLKQNDTIAVCSENSLQFFLPVIASLYLGIIVAPVNDKYIERELIHSLGIVKPRIVFCSKNTFQKVLNVKSKLKSIETIIILDLNEDLGGYQCLNNFISQNSDSNLDVKKFKPYSFNRDDQVAPIMFSSGTTGLPKGVMLTHKNIVARFSIAKDPTFGNAINPTSAILTVIPFHHGFGMMTTLGYFTCGFRVVLMHTFEEKLFLQSLQDYKVESTLLVPTLMAFLAKSALVEKYDLSHLKEIASGGAPLSKEIGEMVKKRFKLNFVRQGYGLTETTSAVLITPKGV
- RESPONSE, IMPROVEMENT OVER TL-CP358-DEVD:DD (caspase-3 [1]): 5.115 fold
- INDUCED, IMPROVEMENT OVER TL-CP358-DEVD:DD (caspase-3 [1]): 0.852 fold
- BASAL, IMPROVEMENT OVER TL-CP358-DEVD:DD (caspase-3 [1]): 0.167 fold
- greater RESPONSE compared with TL-CP358-DEVD:DD (caspase-3 [1]): about 2 times

B2: FC7: 24: CBS variant, 193SP 471IT 503SG 507TI (SEQ ID NOs:9 and 10) (protein)
chain: B1 chain with I115T
- RESPONSE, IMPROVEMENT OVER TL-CP358-DEVD:DD (caspase-3 [1]): 5.480 fold
- INDUCED, IMPROVEMENT OVER TL-CP358-DEVD:DD (caspase-3 [1]): 0.191 fold
- BASAL, IMPROVEMENT OVER TL-CP358-DEVD:DD (caspase-3 [1]): 0.035 fold
- greater RESPONSE compared with TL-CP358-DEVD:DD (caspase-3 [1]): about 2 times

B3: HQ:CBS:HT: 5×HQ tag:CBS (variant 1A5):HaloTag fusion protein expressed in E. coli (SEQ ID NOs:73 and 74) (protein)
chain: MKHQHQHQAIAMPGSTGKIVPLHAVKVVDPTTGKILGPNEPGELYFKGPMIMKGYYNNEEATKAIIDNDGWLRSGDIAYYDNDGHFYIVDRLKSLIKYKGYQVAPAEIEGILLQHPYIVDAGVTGIPDEAAGELPAAGVVVQTGKYLNEQIVQDYVASQVSIAKWLRGGVKFLDEIPKGSTGKIDRKVLRQMLEKHTNGSDEVDGSLKNILYGPEPFYPLEDGTAGEQMFDALSRYAAIPGCIALTNAHTKENVLYEEFLKLSCRLAESFKKYGLKQNDTIAVCSENSLQFFLPVIASLYLGIIVAPVNDKYIERELIHSLGIVKPRIVFCSKNTFQKVLNVKSKLKSIETIIILDLNEDLGGYQCLNNFISQNSDSNLDVKKFKPYSFNRDDQVASIMFSSGTTGLPKGVMLTHKNIVARFSIAKDPTFGNAINPTSAILTVIPFHHGFGMMTTLGYFTCGFRVVLMHTFEEKLFLQSLQDYKVESTLLVPTLMAFLAKSALVEKYDLSHLKEIASGGAPLSKEIGEMVKKRFKLNFVRQGYGLTETTSAVLITPKGVSLEPTTEDLYFQSDNDGSEIGTGFPFDPHYVEVLGERMHYVDVGPRDGTPVLFLHGNPTSSYVWRNIIPHVAPTHRCIAPDLIGMGKSDKPDLGYFFDDHVRFMDAFIEALGLEEVVLVIHDWGSALGFHWAKRNPERVKGIAFMEFIRPIPTWDEWPEFARETFQAFRTTDVGRKLIIDQNVFIEGTLPMGVVRPLTEVEMDHYREPFLNPVDREPLWRFPNELPIAGEPANIVALVEEYMDWLHQSPVPKLLFWGTPGVLIPPAEAARLAKSLPNCKAVDIGPGLNLLQEDNPDLIGSEIARWLSTLEISG
- BASAL luminescence (caspase-3 [2]; HisLink elution fraction E1): 4,221
- INDUCED luminescence (caspase-3 [2]; HisLink elution fraction E1): 2,951,899
- RESPONSE (caspase-3 [2]; HisLink elution fraction E1): 699
- BASAL luminescence (caspase-3 [2]; HisLink elution fraction E2): 193,268
- INDUCED luminescence (caspase-3 [2]; HisLink elution fraction E2): 40,913,496
- RESPONSE (caspase-3 [2]; HisLink elution fraction E2): 212
- BASAL luminescence (caspase-3 [2]; HisLink elution fraction E3): 18,454
- INDUCED luminescence (caspase-3 [2]; HisLink elution fraction E3): 3,287,059
- RESPONSE (caspase-3 [2]; HisLink elution fraction E3): 178
- BASAL luminescence (caspase-3 [2]; HisLink elution fraction E4): 1,130
- INDUCED luminescence (caspase-3 [2]; HisLink elution fraction E4): 215,580
- RESPONSE (caspase-3 [2]; HisLink elution fraction E4): 191
- BASAL luminescence (caspase-3 [2]; HisLink elution fraction E5): 270
- INDUCED luminescence (caspase-3 [2]; HisLink elution fraction E5): 48,068
- RESPONSE (caspase-3 [2]; HisLink elution fraction E5): 178
- BASAL luminescence (caspase-3 [2]; [4]): 301,304
- INDUCED luminescence (caspase-3 [2]; [4]): 12,875,742
- RESPONSE (caspase-3 [2]; [4]): 43
- BASAL luminescence (caspase-3 [2]; [5]): 176,259
- INDUCED luminescence (caspase-3 [2]; [5]): 5,822,003
- RESPONSE (caspase-3 [2]; [5]): 33
- BASAL luminescence (caspase-3 [2]; [6]): 7,734
- INDUCED luminescence (caspase-3 [2]; [6]): 3,706,541
- RESPONSE (caspase-3 [2]; [6]): 479
- BASAL luminescence (caspase-3 [3]; column HaloLink-Plate): 6,880
- INDUCED luminescence (caspase-3 [3]; column HaloLink-Plate): 661,597
- RESPONSE (caspase-3 [3]; column HaloLink-Plate): 96
- BASAL luminescence (caspase-3 [3]; column HisLink): 193,268
- INDUCED luminescence (caspase-3 [3]; column HisLink): 40,913,496
- RESPONSE (caspase-3 [3]; column HisLink): 212
